Source: publication PMC4132743 (Nucleic Acids Research, 2014)
Changes are numbered by the printed parent chain. Numbers in names are those of the source.

Tests used:
[1] = target: T1, DnaT (wt, full length) (Escherichia coli K12, UniProt P0A8J2 1-179); assay: fluorescence polarization; apparent; Hill h=1.6±0.2; Buffer A: 20 mM Tris-HCl pH 7.5, 40 mM NaCl, 5% v/v glycerol, 20 C; FPA 200 nM 5'-FAM DNA, Hill fit; EMSA 30 min at 20 C, gels in 0.5x TBE at 4 C; conditions: protein: recombinant; tags: His-MBP removed by TEV; label: 5'-FAM
T1 sequence: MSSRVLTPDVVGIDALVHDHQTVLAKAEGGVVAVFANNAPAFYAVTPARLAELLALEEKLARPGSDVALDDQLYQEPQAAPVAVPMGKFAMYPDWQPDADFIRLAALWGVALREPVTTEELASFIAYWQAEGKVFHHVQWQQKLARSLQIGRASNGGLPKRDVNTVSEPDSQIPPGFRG

[2] = target: T2, DnaT84-153 (Escherichia coli K12, UniProt P0A8J2 84-153); assay: fluorescence polarization; apparent; Hill h=2.1±0.2; Buffer A: 20 mM Tris-HCl pH 7.5, 40 mM NaCl, 5% v/v glycerol, 20 C; FPA 200 nM 5'-FAM DNA, Hill fit; EMSA 30 min at 20 C, gels in 0.5x TBE at 4 C; conditions: protein: recombinant; tags: His-MBP removed by TEV; label: 5'-FAM
T2 sequence: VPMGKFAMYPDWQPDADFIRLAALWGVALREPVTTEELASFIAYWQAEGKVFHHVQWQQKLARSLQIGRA

[3] = target: T1, DnaT (wt, full length); assay: fluorescence polarization; apparent; Hill h=3.6±0.3; Buffer A: 20 mM Tris-HCl pH 7.5, 40 mM NaCl, 5% v/v glycerol, 20 C; FPA 200 nM 5'-FAM DNA, Hill fit; EMSA 30 min at 20 C, gels in 0.5x TBE at 4 C; conditions: protein: recombinant; tags: His-MBP removed by TEV; label: 5'-FAM
[4] = target: T3, DnaT84-179 (Escherichia coli K12, UniProt P0A8J2 84-179); assay: fluorescence polarization; apparent; Hill h=2.7±0.2; Buffer A: 20 mM Tris-HCl pH 7.5, 40 mM NaCl, 5% v/v glycerol, 20 C; FPA 200 nM 5'-FAM DNA, Hill fit; EMSA 30 min at 20 C, gels in 0.5x TBE at 4 C; conditions: protein: recombinant; tags: His-MBP removed by TEV; chain copies: 2; label: 5'-FAM
T3 sequence: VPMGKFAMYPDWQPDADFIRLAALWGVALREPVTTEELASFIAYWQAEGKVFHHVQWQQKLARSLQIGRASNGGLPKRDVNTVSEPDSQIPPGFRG

[5] = target: T1, DnaT (wt, full length); assay: fluorescence polarization; apparent; Hill h=2.3±0.2; Buffer A: 20 mM Tris-HCl pH 7.5, 40 mM NaCl, 5% v/v glycerol, 20 C; FPA 200 nM 5'-FAM DNA, Hill fit; EMSA 30 min at 20 C, gels in 0.5x TBE at 4 C; conditions: protein: recombinant; tags: His-MBP removed by TEV; label: 5'-FAM
[6] = target: T1, DnaT (wt, full length); assay: EMSA; 20 uM DNA; Buffer A: 20 mM Tris-HCl pH 7.5, 40 mM NaCl, 5% v/v glycerol, 20 C; FPA 200 nM 5'-FAM DNA, Hill fit; EMSA 30 min at 20 C, gels in 0.5x TBE at 4 C; conditions: protein: recombinant; tags: His-MBP removed by TEV
[7] = target: T1, DnaT (wt, full length); assay: fluorescence polarization; apparent; Hill h=2.5±0.6; Buffer A: 20 mM Tris-HCl pH 7.5, 40 mM NaCl, 5% v/v glycerol, 20 C; FPA 200 nM 5'-FAM DNA, Hill fit; EMSA 30 min at 20 C, gels in 0.5x TBE at 4 C; conditions: protein: recombinant; tags: His-MBP removed by TEV; label: 5'-FAM
[8] = target: the molecule itself; assay: SEC; Superdex 75 or Superdex 200 10/300 GL in buffer A (20 mM Tris-HCl pH 7.5, 40 mM NaCl, 5% glycerol), against molecular mass standards
[9] = target: T1, DnaT (wt, full length); assay: fluorescence polarization; apparent; Hill h=1.8±0.3; Buffer A: 20 mM Tris-HCl pH 7.5, 40 mM NaCl, 5% v/v glycerol, 20 C; FPA 200 nM 5'-FAM DNA, Hill fit; EMSA 30 min at 20 C, gels in 0.5x TBE at 4 C; conditions: protein: recombinant; tags: His-MBP removed by TEV; label: 5'-FAM
[10] = target: T1, DnaT (wt, full length); assay: fluorescence polarization; apparent; Hill h=2.3±0.3; Buffer A: 20 mM Tris-HCl pH 7.5, 40 mM NaCl, 5% v/v glycerol, 20 C; FPA 200 nM 5'-FAM DNA, Hill fit; EMSA 30 min at 20 C, gels in 0.5x TBE at 4 C; conditions: protein: recombinant; tags: His-MBP removed by TEV; label: 5'-FAM
[11] = target: T1, DnaT (wt, full length); assay: fluorescence polarization; apparent; Hill h=1.8±0.2; Buffer A: 20 mM Tris-HCl pH 7.5, 40 mM NaCl, 5% v/v glycerol, 20 C; FPA 200 nM 5'-FAM DNA, Hill fit; EMSA 30 min at 20 C, gels in 0.5x TBE at 4 C; conditions: protein: recombinant; tags: His-MBP removed by TEV; label: 5'-FAM
[12] = target: the molecule itself; assay: negative-staining electron microscopy; purified DnaT alone in buffer A (also after DNase I), 0.7% uranyl formate, FEI Tecnai F20
[13] = target: T1, DnaT (wt, full length); assay: fluorescence polarization; apparent; Hill h=2.0±0.2; Buffer A: 20 mM Tris-HCl pH 7.5, 40 mM NaCl, 5% v/v glycerol, 20 C; FPA 200 nM 5'-FAM DNA, Hill fit; EMSA 30 min at 20 C, gels in 0.5x TBE at 4 C; conditions: protein: recombinant; tags: His-MBP removed by TEV; label: 5'-FAM

TGTGTGTGTGTGTGTGTGTGTGTGTGTGTG (ssDNA) [5F-d(TG)15] was tested. Which Kd [1] did it give?
Its Kd is 1.3 ± 0.11 µM.

Which Kd [2] does the source give for TTTTTTTTTTTTTTTTTTTTTTTTTTTTTT (ssDNA) [5F-dT30] here?
Its Kd is 27.1 ± 2.3 µM.

And the Kd [3]?
The Kd was 12.9 ± 0.57 µM.

And the Kd [4]?
Its Kd is 9.87 ± 0.32 µM.

With TGGGTGGGTGGGTGGGTGGGTGGGTGGG (ssDNA) [5F-d(TGGG)7] as the binder, how does the Kd [5] read?
Its Kd is 0.597 ± 0.02 µM.

Does TTTTTTTTTT (ssDNA) [dT10] bind [6]?
Result: binds

With AAAAAAAAAAAAAAA (ssDNA) [5F-dA15] as the binder, how does the Kd [7] read?
Its Kd is 46.7 ± 6.87 µM.

B1: DnaT^84–179 (N-terminal-truncated DnaT) (domain or fragment, Escherichia coli (strain K12), UniProt P0A8J2 84-179, looked up)
chain: T3 sequence
notes: Dimer in solution by size-exclusion chromatography (see the N row); source: E. coli BL21 (DE3), purified (Ni-chelating resin, TEV digestion, HisTrap HP, HiTrap DEAE FF, Superdex 200); not shown: His, N-terminal, cleaved; MBP, N-terminal, cleaved
Which “stoichiometry N” value [8] does the source give for B1 here?
The value was 2.

B2: DnaT^84–153 (N- and C-terminal-truncated DnaT, recombinant fragment) (domain or fragment, Escherichia coli (strain K12), UniProt P0A8J2 84-153, looked up)
chain: T2 sequence
notes: as for B1
How did the “stoichiometry N” value [8] turn out when B2 was run?
Its value is 2.

TGGTGGTGGTGGTGGTGGTGGTGGTGGTGG (ssDNA) [5F-d(TGG)10] was tested. Which Kd [9] did it give?
The Kd was 2.76 ± 0.28 µM.

CACACACACACACACACACACACACACACA (ssDNA) [5F-d(CA)15] was tested. Which Kd [10] did it give?
Its Kd is 31.5 ± 3.6 µM.

How did the Kd [11] turn out when AAAAAAAAAAAAAAAAAAAAAAAAAAAAAA (ssDNA) [5F-dA30] was run?
The Kd was 39.2 ± 3.85 µM.

B3: DnaT F135A (natural protein, Escherichia coli (strain K12), UniProt P0A8J2 1-179, looked up)
chain: T1 sequence with F135A
notes: E. coli K12 DnaT, made from the wt-DnaT vector by site-directed mutagenesis; source: E. coli BL21 (DE3), purified as the wild type; not shown: His, N-terminal, cleaved; MBP, N-terminal, cleaved
Does B3 bind [8]?
Result: binds

B4: DnaT K143A (natural protein, Escherichia coli (strain K12), UniProt P0A8J2 1-179, looked up)
chain: T1 sequence with K143A
notes: as for B3
Does B4 bind [8]?
Result: binds

B5: DnaT W128A (natural protein, Escherichia coli (strain K12), UniProt P0A8J2 1-179, looked up)
chain: T1 sequence with W128A
notes: as for B3
Does B5 bind [8]?
Result: binds

B6: DnaT (full-length, wild type) (natural protein, Escherichia coli (strain K12), UniProt P0A8J2 1-179, looked up)
chain: T1 sequence
notes: E. coli K12 DnaT, amplified from genomic DNA; also called wt-DnaT; DnaT-FL; source: E. coli BL21 (DE3), purified (Ni-chelating resin, TEV digestion, HisTrap HP, HiTrap DEAE FF, Superdex 200); not shown: His, N-terminal, cleaved; MBP, N-terminal, cleaved
Does B6 bind [12]?
Result: binds

B7: DnaT Y127A/W128A double mutant (natural protein, Escherichia coli (strain K12), UniProt P0A8J2 1-179, looked up)
chain: T1 sequence with Y127A, W128A
notes: as for B3
Does B7 bind [8]?
Result: binds

B8: DnaT R146A (natural protein, Escherichia coli (strain K12), UniProt P0A8J2 1-179, looked up)
chain: T1 sequence with R146A
notes: as for B3
Does B8 bind [8]?
Result: binds

B9: DnaT Y127A (natural protein, Escherichia coli (strain K12), UniProt P0A8J2 1-179, looked up)
chain: T1 sequence with Y127A
notes: as for B3
Does B9 bind [8]?
Result: binds

B10: DnaT K133A (natural protein, Escherichia coli (strain K12), UniProt P0A8J2 1-179, looked up)
chain: T1 sequence with K133A
notes: as for B3
Does B10 bind [8]?
Result: binds

TTTTTTTTTTTTTTT (ssDNA) [5F-dT15] was tested. Which Kd [13] did it give?
The Kd was 16.2 ± 1.63 µM.
